Measurements taken from PMC6988089.

Assays:
[1] = biological target: TAMRA-labeled benzylated H3K9 peptide; assay: fluorescence polarisation
[2] = biological target: TAMRA-labeled H3K9me3 peptide; assay: fluorescence polarisation

Question: How did the Kd [1] turn out when “CBX1 chromodomain F50A (from UniProt P83916 20-73) (domain or fragment)” was run?
Answer: The Kd was 18.5 µM.

Question: Which Kd (H3K9me2 peptide) does the source give for “Y26F/F50G-CBX1 chromodomain (from UniProt P83916 22-73) (domain or fragment)” here?
Answer: The Kd was over 300 µM.

Question: And the Kd [2]?
Answer: The Kd was 80 µM.

Question: What about the Kd [1] of the same substance?
Answer: The Kd was 5.5 µM.

Question: What does the source list for “CBX3-F44G mutant (from UniProt Q13185 1-183) (natural protein)”?
Answer: Kd [2]: > 1000 µM; Kd [1]: 49 µM

Question: “wild-type CBX3 (from UniProt Q13185 1-183) (natural protein)” was tested. Which Kd [1] did it give?
Answer: Its Kd is over 1000 µM.
